Several values for one entry are separate records, joined by “and”; a condition that tells them apart may be missing. Equal values may be shown once.
T1: Arabidopsis thaliana EIN2 C-terminus (AtEIN2 479-1294), soluble cytosolic domain (Arabidopsis thaliana, UniProt Q9S814 479-1294, Alexa Fluor 488 succinimidyl-ester label where used as the labeled partner in MST)
T1 construct: source: recombinant, expressed and purified as previously described (Bisson et al., 2016)
T1 sequence (looked up): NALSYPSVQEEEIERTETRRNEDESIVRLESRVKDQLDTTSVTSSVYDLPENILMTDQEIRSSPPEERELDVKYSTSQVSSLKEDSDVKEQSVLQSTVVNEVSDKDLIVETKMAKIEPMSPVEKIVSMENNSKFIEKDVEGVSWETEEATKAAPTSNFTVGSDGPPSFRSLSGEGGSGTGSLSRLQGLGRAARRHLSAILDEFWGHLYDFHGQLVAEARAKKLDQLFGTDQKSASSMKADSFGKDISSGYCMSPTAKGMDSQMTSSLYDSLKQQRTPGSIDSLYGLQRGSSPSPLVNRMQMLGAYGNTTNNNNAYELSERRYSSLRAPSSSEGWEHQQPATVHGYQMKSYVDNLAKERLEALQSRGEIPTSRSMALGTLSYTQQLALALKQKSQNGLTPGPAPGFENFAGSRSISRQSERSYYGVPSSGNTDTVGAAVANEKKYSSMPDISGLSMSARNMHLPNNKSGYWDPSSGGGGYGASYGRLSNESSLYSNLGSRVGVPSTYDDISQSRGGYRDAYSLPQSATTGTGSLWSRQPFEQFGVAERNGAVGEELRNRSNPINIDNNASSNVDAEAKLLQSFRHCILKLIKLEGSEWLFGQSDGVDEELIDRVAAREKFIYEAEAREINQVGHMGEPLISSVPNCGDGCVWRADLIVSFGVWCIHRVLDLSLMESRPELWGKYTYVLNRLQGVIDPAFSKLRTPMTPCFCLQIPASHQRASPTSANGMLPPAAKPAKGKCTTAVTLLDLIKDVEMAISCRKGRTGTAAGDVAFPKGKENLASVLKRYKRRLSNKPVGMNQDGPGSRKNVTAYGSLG

T2: Isolated transmembrane domain of AtETR1 (aa 1-157) with C4S and C6S (Arabidopsis thaliana, UniProt P49333 1-157, C4S | C6S)
T2 sequence: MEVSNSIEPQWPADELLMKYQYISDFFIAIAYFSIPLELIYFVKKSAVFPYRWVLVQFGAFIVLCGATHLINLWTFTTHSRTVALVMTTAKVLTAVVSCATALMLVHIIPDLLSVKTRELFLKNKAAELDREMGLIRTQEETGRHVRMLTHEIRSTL

T3: Arabidopsis thaliana Raf-like protein kinase CTR1 (AtCTR1), full-length, fused to mCerulean (Arabidopsis thaliana, UniProt Q05609 1-821, Alexa Fluor 488 succinimidyl-ester label)
T3 construct: CONSTITUTIVE TRIPLE RESPONSE 1 (CTR1), Arabidopsis thaliana, UniProt Q05609, full-length cDNA according to NCBI NM_120454.4; The CTR1 coding region was extended by mCerulean in pET30a; source: E. coli BL21 (DE3) with pRARE, purified (Ni-NTA)
T3 sequence (looked up): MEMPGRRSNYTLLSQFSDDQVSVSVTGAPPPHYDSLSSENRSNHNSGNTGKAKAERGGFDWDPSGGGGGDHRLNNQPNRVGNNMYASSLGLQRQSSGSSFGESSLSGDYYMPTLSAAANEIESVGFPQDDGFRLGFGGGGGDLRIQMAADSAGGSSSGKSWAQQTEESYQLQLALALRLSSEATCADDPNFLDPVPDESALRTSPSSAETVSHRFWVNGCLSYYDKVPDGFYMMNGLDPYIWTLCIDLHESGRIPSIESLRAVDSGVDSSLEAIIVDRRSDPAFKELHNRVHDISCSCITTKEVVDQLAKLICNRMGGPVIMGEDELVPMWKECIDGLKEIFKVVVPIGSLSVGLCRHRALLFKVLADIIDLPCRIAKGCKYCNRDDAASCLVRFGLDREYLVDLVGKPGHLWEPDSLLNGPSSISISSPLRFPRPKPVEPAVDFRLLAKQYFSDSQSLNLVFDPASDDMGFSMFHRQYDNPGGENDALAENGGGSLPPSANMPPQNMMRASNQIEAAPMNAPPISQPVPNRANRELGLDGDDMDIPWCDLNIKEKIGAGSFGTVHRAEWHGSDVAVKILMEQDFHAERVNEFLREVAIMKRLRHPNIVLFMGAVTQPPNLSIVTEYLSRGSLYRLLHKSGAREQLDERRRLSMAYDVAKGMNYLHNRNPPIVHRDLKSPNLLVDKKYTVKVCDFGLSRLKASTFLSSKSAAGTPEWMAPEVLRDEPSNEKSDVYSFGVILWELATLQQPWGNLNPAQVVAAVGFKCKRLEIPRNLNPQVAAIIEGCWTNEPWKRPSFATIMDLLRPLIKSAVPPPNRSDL

B1: Arabidopsis thaliana ethylene receptor ETR2 (AtETR2), full-length, type-II subfamily (receptor, UniProt Q0WPQ2 1-773, looked up)
chain: MVKEIASWLLILSMVVFVSPVLAINGGGYPRCNCEDEGNSFWSTENILETQRVSDFLIAVAYFSIPIELLYFVSCSNVPFKWVLFEFIAFIVLCGMTHLLHGWTYSAHPFRLMMAFTVFKMLTALVSCATAITLITLIPLLLKVKVREFMLKKKAHELGREVGLILIKKETGFHVRMLTQEIRKSLDRHTILYTTLVELSKTLGLQNCAVWMPNDGGTEMDLTHELRGRGGYGGCSVSMEDLDVVRIRESDEVNVLSVDSSIARASGGGGDVSEIGAVAAIRMPMLRVSDFNGELSYAILVCVLPGGTPRDWTYQEIEIVKVVADQVTVALDHAAVLEESQLMREKLAEQNRALQMAKRDALRASQARNAFQKTMSEGMRRPMHSILGLLSMIQDEKLSDEQKMIVDTMVKTGNVMSNLVGDSMDVPDGRFGTEMKPFSLHRTIHEAACMARCLCLCNGIRFLVDAEKSLPDNVVGDERRVFQVILHIVGSLVKPRKRQEGSSLMFKVLKERGSLDRSDHRWAAWRSPASSADGDVYIRFEMNVENDDSSSQSFASVSSRDQEVGDVRFSGGYGLGQDLSFGVCKKVVQLIHGNISVVPGSDGSPETMSLLLRFRRRPSISVHGSSESPAPDHHAHPHSNSLLRGLQVLLVDTNDSNRAVTRKLLEKLGCDVTAVSSGFDCLTAIAPGSSSPSTSFQVVVLDLQMAEMDGYEVAMRIRSRSWPLIVATTVSLDEEMWDKCAQIGINGVVRKPVVLRAMESELRRVLLQADQLL
modifications: Alexa Fluor 488 succinimidyl-ester label where used as the labeled partner in MST
notes: ETR2, Arabidopsis thaliana, UniProt Q0WPQ2, full-length, codon optimized cDNA according to NCBI NM_113216.3; The thrombin site of pGEX-4T-1 was changed to a TEV site (ENLYFQG); No cleavage is described; The purified protein runs at an apparent 120 kDa, so GST is probably still attached; The same construct was used with and without the Alexa Fluor 488 label; source: E. coli C43 (DE3), solubilised …

Tests used:
[1] = biological target: the molecule itself; experiment: MST; 40 nM Alexa Fluor 488-labeled receptor (AtETR1 or AtETR2); unlabeled AtETR1 or AtETR2 (4 µM to 0.49 nM) or ETR1-TM C4SC6S (16 µM to 0.98 nM) titrated; 0.0075% (w/v) FosCholine-16; 60% MST power; 1:1 model
[2] = biological target: T1, Arabidopsis thaliana EIN2 C-terminus …; experiment: MST; 75 nM Alexa Fluor 488-labeled AtEIN2 479-1294; unlabeled AtETR2 titrated 4 µM to 1.95 nM; ambient temperature; 60% MST power; 1:1 model; apparent Kd; settings: both partners purified
[3] = biological target: T2, Isolated transmembrane domain of AtETR1 …; experiment: MST; ETR2 Alexa488-labeled
[4] = biological target: T1, Arabidopsis thaliana EIN2 C-terminus …; experiment: MST; 20 nM Alexa Fluor 488-labeled AtETR2 (MST buffer 1: 50 mM HEPES/NaOH pH 7.8, 300 mM NaCl, 5% glycerol, 0.015% FosCholine-16); unlabeled AtEIN2 479-1294 (MST buffer 3) titrated 2 µM to 0.98 nM; 20% MST power; 1:1 model; apparent Kd; settings: both partners purified
[5] = biological target: T3, Arabidopsis thaliana Raf-like protein …; experiment: MST; Alexa Fluor 488-labeled AtCTR1 (MST buffer 3; 50 nM with AtETR1, 20 nM with AtETR2); unlabeled receptors (MST buffer 2) titrated 4 µM to 0.98 nM; 60% MST power; premium capillaries and 10 min incubation for AtETR2; 1:1 model; settings: both partners purified
[6] = biological target: B1; experiment: MST; 40 nM Alexa Fluor 488-labeled receptor (AtETR1 or AtETR2); unlabeled AtETR1 or AtETR2 (4 µM to 0.49 nM) or ETR1-TM C4SC6S (16 µM to 0.98 nM) titrated; 0.0075% (w/v) FosCholine-16; 60% MST power; 1:1 model; settings: both partners purified
[7] = biological target: T2, Isolated transmembrane domain of AtETR1 …; experiment: MST; ETR1 Alexa488-labeled

| Kd [2] [nM] | Kd [3] [nM] | Kd [4] [nM] | Kd [5] [nM] | Kd [6] | Kd [7] [nM] | Binder | Kd [1] [nM] |
| --- | --- | --- | --- | --- | --- | --- | --- |
| 147 | 145 | 161 | 165 | – | – | B1 | 96 |
| – | – | – | 169 | 177 nM and 217 nM | 491 | Arabidopsis thaliana ethylene receptor ETR1 (AtETR1), full-length, type-I subfamily (receptor, UniProt P49333 1-738, looked up, Alexa Fluor 488 succinimidyl-ester label where used as the labeled partner in MST, ETR1, Arabidopsis thaliana, full-length receptor; source: recombinant, expressed and purified as described in Milić et al., 2018, in FosCholine-16) MEVCNCIEPQWPADELLMKYQYISDFFIAIAYFSIPLELIYFVKKSAVFPYRWVLVQFGAFIVLCGATHLINLWTFTTHSRTVALVMTTAKVLTAVVSCATALMLVHIIPDLLSVKTRELFLKNKAAELDREMGLIRTQEETGRHVRMLTHEIRSTLDRHTILKTTLVELGRTLALEECALWMPTRTGLELQLSYTLRHQHPVEYTVPIQLPVINQVFGTSRAVKISPNSPVARLRPVSGKYMLGEVVAVRVPLLHLSNFQINDWPELSTKRYALMVLMLPSDSARQWHVHELELVEVVADQVAVALSHAAILEESMRARDLLMEQNVALDLARREAETAIRARNDFLAVMNHEMRTPMHAIIALSSLLQETELTPEQRLMVETILKSSNLLATLMNDVLDLSRLEDGSLQLELGTFNLHTLFREVLNLIKPIAVVKKLPITLNLAPDLPEFVVGDEKRLMQIILNIVGNAVKFSKQGSISVTALVTKSDTRAADFFVVPTGSHFYLRVKVKDSGAGINPQDIPKIFTKFAQTQSLATRSSGGSGLGLAISKRFVNLMEGNIWIESDGLGKGCTAIFDVKLGISERSNESKQSGIPKVPAIPRHSNFTGLKVLVMDENGVSRMVTKGLLVHLGCEVTTVSSNEECLRVVSHEHKVVFMDVCMPGVENYQIALRIHEKFTKQRHQRPLLVALSGNTDKSTKEKCMSFGLDGVLLKPVSLDNIRDVLSDLLEPRVLYEGM | 326 |

From PMC6566107, “Molecular Analysis of Protein-Protein Interactions in the Ethylene Pathway in the Different Ethylene Receptor Subfamilies” (Frontiers in Plant Science, 2019)
